Laboratory results: patent US20170096474A1 (published 2017)

Key:
[1] = target: Botulinum neurotoxin type B, subtype B2 (BoNT/B2) (Clostridium botulinum); assay: flow cytometry, yeast-displayed Fab against yeast-displayed scFv
[2] = target: T1, Botulinum neurotoxin type B, subtype B1 (BoNT/B1) (Clostridium botulinum, UniProt P10844 2-1291)
T1 sequence: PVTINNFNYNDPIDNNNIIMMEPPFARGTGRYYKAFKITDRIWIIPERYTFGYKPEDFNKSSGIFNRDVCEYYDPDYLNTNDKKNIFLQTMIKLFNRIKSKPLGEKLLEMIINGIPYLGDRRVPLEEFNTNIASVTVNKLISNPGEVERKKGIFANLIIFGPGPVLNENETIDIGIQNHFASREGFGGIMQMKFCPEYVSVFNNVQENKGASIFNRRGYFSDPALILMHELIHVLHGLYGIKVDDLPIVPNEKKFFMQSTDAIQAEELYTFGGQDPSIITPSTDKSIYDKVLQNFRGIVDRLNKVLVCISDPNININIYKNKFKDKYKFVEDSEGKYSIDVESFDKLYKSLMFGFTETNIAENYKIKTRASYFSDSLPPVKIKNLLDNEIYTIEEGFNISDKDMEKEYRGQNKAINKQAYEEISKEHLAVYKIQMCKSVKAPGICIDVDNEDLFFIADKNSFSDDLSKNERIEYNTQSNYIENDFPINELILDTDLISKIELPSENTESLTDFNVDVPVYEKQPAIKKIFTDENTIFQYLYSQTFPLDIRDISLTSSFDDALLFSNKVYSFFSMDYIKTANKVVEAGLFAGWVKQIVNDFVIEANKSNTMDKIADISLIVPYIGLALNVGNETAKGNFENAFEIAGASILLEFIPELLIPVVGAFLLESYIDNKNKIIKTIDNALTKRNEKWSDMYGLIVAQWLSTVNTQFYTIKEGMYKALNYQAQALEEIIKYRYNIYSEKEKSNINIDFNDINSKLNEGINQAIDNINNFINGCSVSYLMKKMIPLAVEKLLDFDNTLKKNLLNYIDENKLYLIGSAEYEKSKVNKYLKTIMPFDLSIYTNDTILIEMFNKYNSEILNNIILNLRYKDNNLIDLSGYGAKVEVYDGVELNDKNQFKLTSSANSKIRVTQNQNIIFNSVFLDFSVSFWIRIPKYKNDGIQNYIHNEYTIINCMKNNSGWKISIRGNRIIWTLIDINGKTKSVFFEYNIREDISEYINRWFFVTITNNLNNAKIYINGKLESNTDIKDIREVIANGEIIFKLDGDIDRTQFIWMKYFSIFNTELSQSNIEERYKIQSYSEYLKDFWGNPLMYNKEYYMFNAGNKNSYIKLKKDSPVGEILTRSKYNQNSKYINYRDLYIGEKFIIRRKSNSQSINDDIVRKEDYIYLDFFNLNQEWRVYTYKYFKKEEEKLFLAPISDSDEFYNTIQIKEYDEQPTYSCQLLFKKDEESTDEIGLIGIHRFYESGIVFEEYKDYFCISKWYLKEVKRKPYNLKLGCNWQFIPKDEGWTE

[3] = target: T2, BoNT/B light chain (LC), yeast displayed (Clostridium botulinum, UniProt P10844 1-441); assay: labeled detection mAb in flow cytometry sorting
T2 sequence: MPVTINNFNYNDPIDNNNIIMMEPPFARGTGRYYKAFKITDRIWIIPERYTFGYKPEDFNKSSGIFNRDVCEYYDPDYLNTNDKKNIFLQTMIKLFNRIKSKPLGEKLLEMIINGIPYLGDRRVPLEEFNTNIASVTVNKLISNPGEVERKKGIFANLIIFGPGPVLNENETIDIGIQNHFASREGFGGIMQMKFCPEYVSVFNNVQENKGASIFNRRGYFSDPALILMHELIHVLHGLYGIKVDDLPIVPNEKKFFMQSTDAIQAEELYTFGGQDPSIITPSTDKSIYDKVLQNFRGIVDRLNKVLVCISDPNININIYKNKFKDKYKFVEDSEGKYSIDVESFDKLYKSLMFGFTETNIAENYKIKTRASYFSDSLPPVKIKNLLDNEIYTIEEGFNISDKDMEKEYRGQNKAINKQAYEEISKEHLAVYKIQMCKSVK

[4] = target: T2, BoNT/B light chain (LC), yeast displayed; assay: yeast-displayed scFv
[5] = target: T3, BoNT/B translocation domain (HN), yeast displayed (Clostridium botulinum, UniProt P10844 442-857); assay: yeast-displayed scFv
T3 sequence: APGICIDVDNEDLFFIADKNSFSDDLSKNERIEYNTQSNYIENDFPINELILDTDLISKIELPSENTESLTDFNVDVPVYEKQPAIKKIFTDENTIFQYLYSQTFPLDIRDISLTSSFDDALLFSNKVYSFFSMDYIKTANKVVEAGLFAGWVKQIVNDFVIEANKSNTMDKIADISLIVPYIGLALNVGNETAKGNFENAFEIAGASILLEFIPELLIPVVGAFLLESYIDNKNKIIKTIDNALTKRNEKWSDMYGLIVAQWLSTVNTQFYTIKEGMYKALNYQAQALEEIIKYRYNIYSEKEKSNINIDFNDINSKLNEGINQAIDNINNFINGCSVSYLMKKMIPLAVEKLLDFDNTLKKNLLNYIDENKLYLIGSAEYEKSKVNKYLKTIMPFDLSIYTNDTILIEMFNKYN

[6] = target: T1, Botulinum neurotoxin type B, subtype B1 …; assay: flow cytometry, yeast-displayed Fab
[7] = target: T3, BoNT/B translocation domain (HN), yeast …; assay: IgG/Fab on yeast-displayed toxin domain, flow cytometry
[8] = target: T2, BoNT/B light chain (LC), yeast displayed; assay: soluble scFv or IgG on yeast-displayed BoNT/B domains
[9] = target: T3, BoNT/B translocation domain (HN), yeast …; assay: as above

B1: B11 Fab (Fab, V domains shown)
VH: QVQLLQSAGGVVQPGRSLRLSCAASGFIFRTYGMHWVRQAPGKGLEWVAFVSSDGNNKFYSDSVKGRFTIPRDNAKNTLYLQMNSLETEDTAVYYCAKDRYPIDCSGGSCFSYGMDVWGQGTTVTVSS
VL: DIVMTQSPSTLSASVGDRVTVTCRASQSINSWLAWYQQKPGKAPKLLIYEASSLESGVPSRFSGSGSGTEFTLTISSLQPDDFATYYCQQYDSYWLTFGGGTKVEIKR
- fold higher affinity than the scFv [1]: 1.46 fold

B2: 4B19.1 IgG (antibody, V domains shown)
VH: QVQLVQSGAEVKKPGASVNVSCKASGYTFTGYYIYWVRQAPGQGLEWMGWINPNSGVTKYAQKFQGRVTMTIDTSTNTAYMELNRLRADDTAVYYCAREWTQLWSPYDYWGQGTTVTVSS
VL: DIVLTQSPSTLSASVGDRVTISCRASRSIGWYLNWYQQRPGKAPKLLIYAASSLHNGVPSRFSGSGSGTEFTLTISSLQPDDFATYYCQQAFGFPRTFGQGTKVEIKR
- fold increase in affinity, IgG against parental scFv [2]: 2.25 fold

B3: A12 IgG (antibody, V domains shown)
VH: EVQLVESGGGVVQPGRSLRLSCAASGFTFSSYGMHWVRQAPGKGLEWVAVIWYDGSNKYYADSVKGRFTISRDNSKNTLYLQMNSLRAEDTAVYYCARGYSNYDYYYGMDVWGQGTTVTVSS
VL: DIQMTQSPSSLSASVGDRVTITCRASQRISNYLNWYQQKPGKAPKLLIYAASSLQSEVPSRFSGSGSGTDFTLTISSLQPEDFATYYCQQSYRPPLTFGGGTKVEIKR
- binding result [3]: binds

B4: 6A12 IgG (antibody, V domains shown)
VH: QVQLVESGGGVVQPGRSLRLSCAASGFTFSSYGMHWVRQAPGKGLEWVSYISSSGSTIYYADSVKGRFTISRDNAKNSLYLQMNSLRAEDTAVYYCARVSIVGGPYGMDVWGQGTTVTVSS
VL: DIQMTQSPSSVSASVGNRVTITCRASQGISSWLAWYQQKPGKAPKLLIYAASSLQSGVPSRFSGSGSGTDFTLTISSLQPEDFATYYCQKANSFPLTFGGGTKMEIKR
- binding result [3]: binds

B5: B6 scFv (scFv)
scFv: QVQLVQSGAEVKKPGESLVISCKASGDKDTFTSFWIAWVRQMPGKGLEWMGIIYAGDSDTRYSPSFQGHVNISVDRSTNTAYLQWSSLKASDTAMYYCARHDSRYKYFYFGMDVWGQGTTVTVSSGGGGSGGGGSGGGGSDVVMTQSPSSLSASVGDRITITCQAGQDISNFLNWYQQKPGKAPKLLIRDASNLETGVPSRFSGGGSGTHFTFTISSLHPEDIATYFCQQYDNLPYTFGQGTKLEIK
- binding result [4]: binds

B6: B11 scFv (scFv)
scFv: QVQLLQSAGGVVQPGRSLRLSCAASGFIFRTYGMHWVRQAPGKGLEWVAFVSSDGNNKFYSDSVKGRFTIPRDNAKNTLYLQMNSLETEDTAVYYCAKDRYPIDCSGGSCFSYGMDVWGQGTTVTVSSGGGGSGGGGSGGGGSDIVMTQSPSTLSASVGDRVTVTCRASQSINSWLAWYQQKPGKAPKLLIYEASSLESGVPSRFSGSGSGTEFTLTISSLQPDDFATYYCQQYDSYWLTFGGGTKVEIK
- binding result [5]: binds

B7: B6 Fab (Fab, V domains shown)
VH: QVQLVQSGAEVKKPGESLVISCKASGDKDTFTSFWIAWVRQMPGKGLEWMGIIYAGDSDTRYSPSFQGHVNISVDRSTNTAYLQWSSLKASDTAMYYCARHDSRYKYFYFGMDVWGQGTTVTVSS
VL: DVVMTQSPSSLSASVGDRITITCQAGQDISNFLNWYQQKPGKAPKLLIRDASNLETGVPSRFSGGGSGTHFTFTISSLHPEDIATYFCQQYDNLPYTFGQGTKLEIKR
- binding result [6]: binds

B8: 4E17.1 IgG (antibody, V domains shown)
VH: EVQLVRSGGNLVQPGGSLRLSCAATGPIGSHWMTWVRQAPGQGLEWVANINLDGTEKFYVDSVKGRFTVSRDNRKSSVFLQMNNLRVDDTAVYYCARLQWGGYNGWLSPWGQGTLVTVSS
VL: DIVMTQSPSSLSASVGDRVTISCRASQSIRHYVNWYQQKPGKAPKLLIYKASSLASGAPSRFSGSGSGTDFTLTISSLQPDDFATYYCQQSYSIPLTFGGGTKVEIKR
- binding result [7]: binds

B9: 2B29 scFv (scFv)
scFv: QVQLQESGPGLVKPSETLSLTCSVSGGSINSGTYYWTWIRQHPGKGLEWIGYIYYSGTTYYNPSLKSRVSMSVDTSKNLFSLKMNSVTAADTALYYCARGNPQYDTSGSYTGLYFDFWGQGTLVTVSSGGGGSGGGGSGGGGSQPVLTQSPSASGTPGQRVTISCSGSSSNLGSNTVSWYQQLPGTAPKLLIYSNNQRPSGVPDRFSGSKSGTSASLAISGLQSEDEADYYCATWDDSLSGGVFGGGTKLTVL
- binding result [8]: binds

B10: 1B11 scFv (scFv)
scFv: B6 scFv
- binding result [9]: binds

B11: 1B18 scFv (scFv)
scFv: EVQLVQSGGGLVQPGGSRRLSCAASGFYFNAYWMTWVRQAPGKGLEWVANINLDGTEIYYLDSVKGRFTVSRDNVKNSVFLQMSSLRVEDTAVYFCARLEWGGRNGWVSPWGQGTLVTVSSGGGGSGGGGSGGGGSDVVMTQSPSSVSASVGDRVTITCRASQSISSYLNWYQQRPGKAPKLLIFAASSLQSAVPSRFSGSGSGTDFTLTISSLQPEDFATYYCQQSYSTPPTFGQGTKVEIK
- binding result [9]: binds
